Positions of bridges follow the written chain, without caps; N, C: chain ends. No end group written: not given here.

The test deals with Prostate-specific antigen (PSA or kallikrein-related peptidase-3, KLK3), major form of active PSA (isoform … (human, UniProt P07288 25-261)). Description: SPR. Background: SPR reads the build-up and loss of mass on a sensor chip optically.
Chain of Prostate-specific antigen (PSA or kallikrein-related peptidase-3, KLK3), major form of active PSA (isoform … (P07288 25-261): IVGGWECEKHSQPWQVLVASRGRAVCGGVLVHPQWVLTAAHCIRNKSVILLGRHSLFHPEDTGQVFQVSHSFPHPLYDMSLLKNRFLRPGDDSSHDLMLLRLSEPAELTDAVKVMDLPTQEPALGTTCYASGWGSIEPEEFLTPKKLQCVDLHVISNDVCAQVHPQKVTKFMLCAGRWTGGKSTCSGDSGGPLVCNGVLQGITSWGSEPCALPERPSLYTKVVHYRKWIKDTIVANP

B1: 12-amino acid cyclic peptide B2 (without C-terminal amidation) (peptide)
peptide: CVFAHNYDYLVC-OH
modifications: disulfide 1-12; N-terminus assumed
SMILES: CC(C)C[C@@H]1NC(=O)[C@H](Cc2ccc(O)cc2)NC(=O)[C@H](CC(=O)O)NC(=O)[C@H](Cc2ccc(O)cc2)NC(=O)[C@H](CC(N)=O)NC(=O)[C@H](Cc2c[nH]cn2)NC(=O)[C@H](C)NC(=O)[C@H](Cc2ccccc2)NC(=O)[C@H](C(C)C)NC(=O)[C@@H](N)CSSC[C@@H](C(=O)O)NC(=O)[C@H](C(C)C)NC1=O
The molecule B1 gave a Kd of 56.1 µM. That is a double-digit micromolar value.

In general, Kd refers to the equilibrium constant for the complex coming apart. Read a high Kd as a looser complex.
